Reference: PMC5363870, “A functional variant in NEPH3 gene confers high risk of renal failure in primary hematuric glomerulopathies. Evidence for predisposition to microalbuminuria in the general population” (PLoS ONE, 2017)
Positions count from the first letter of the chain named. In names and notes the source's numbering stands.

B1: Nephrin (Nphs1) (natural protein, human, UniProt O60500 23-1241, looked up)
chain: QLAIPASVPRGFWALPENLTVVEGASVELRCGVSTPGSAVQWAKDGLLLGPDPRIPGFPRYRLEGDPARGEFHLHIEACDLSDDAEYECQVGRSEMGPELVSPRVILSILVPPKLLLLTPEAGTMVTWVAGQEYVVNCVSGDAKPAPDITILLSGQTISDISANVNEGSQQKLFTVEATARVTPRSSDNRQLLVCEASSPALEAPIKASFTVNVLFPPGPPVIEWPGLDEGHVRAGQSLELPCVARGGNPLATLQWLKNGQPVSTAWGTEHTQAVARSVLVMTVRPEDHGAQLSCEAHNSVSAGTQEHGITLQVTFPPSAIIILGSASQTENKNVTLSCVSKSSRPRVLLRWWLGWRQLLPMEETVMDGLHGGHISMSNLTFLARREDNGLTLTCEAFSEAFTKETFKKSLILNVKYPAQKLWIEGPPEGQKLRAGTRVRLVCLAIGGNPEPSLMWYKDSRTVTESRLPQESRRVHLGSVEKSGSTFSRELVLVTGPSDNQAKFTCKAGQLSASTQLAVQFPPTNVTILANASALRPGDALNLTCVSVSSNPPVNLSWDKEGERLEGVAAPPRRAPFKGSAAARSVLLQVSSRDHGQRVTCRAHSAELRETVSSFYRLNVLYRPEFLGEQVLVVTAVEQGEALLPVSVSANPAPEAFNWTFRGYRLSPAGGPRHRILSSGALHLWNVTRADDGLYQLHCQNSEGTAEARLRLDVHYAPTIRALQDPTEVNVGGSVDIVCTVDANPILPGMFNWERLGEDEEDQSLDDMEKISRGPTGRLRIHHAKLAQAGAYQCIVDNGVAPPARRLLRLVVRFAPQVEHPTPLTKVAAAGDSTSSATLHCRARGVPNIVFTWTKNGVPLDLQDPRYTEHTYHQGGVHSSLLTIANVSAAQDYALFTCTATNALGSDQTNIQLVSISRPDPPSGLKVVSLTPHSVGLEWKPGFDGGLPQRFCIRYEALGTPGFHYVDVVPPQATTFTLTGLQPSTRYRVWLLASNALGDSGLADKGTQLPITTPGLHQPSGEPEDQLPTEPPSGPSGLPLLPVLFALGGLLLLSNASCVGGVLWQRRLRRLAEGISEKTEAGSEEDRVRNEYEESQWTGERDTQSSTVSTTEAEPYYRSLRDFSPQLPPTQEEVSYSRGFTGEDEDMAFPGHLYDEVERTYPPSGAWGPLYDEVQMGPWDLHWPEDTYQDPRGIYDQVAGDLDTLEPDSLPFELRGHLV
notes: Nephrin, human NPHS1 cDNA cloned into a modified pcDNA6 vector behind the CD5 signal peptide and the V5 tag (sV5-tag); A CD5 signal peptide precedes the V5 tag in the construct; also called sV5-Nphs1; sV5-Nephrin; source: HEK 293T, transfected (calcium phosphate), in lysate; not shown: V5, N-terminal, kept
B2: Neph3 (filtrin) 353M variant (natural protein, human, UniProt Q6UWL6 21-708, looked up)
chain: GPSPHFLQQPEDLVVLLGEEARLPCALGAYWGLVQWTKSGLALGGQRDLPGWSRYWISGNAANGQHDLHIRPVELEDEASYECQATQAGLRSRPAQLHVLVPPEAPQVLGGPSVSLVAGVPANLTCRSRGDARPTPELLWFRDGVLLDGATFHQTLLKEGTPGSVESTLTLTPFSHDDGATFVCRARSQALPTGRDTAITLSLQYPPEVTLSASPHTVQEGEKVIFLCQATAQPPVTGYRWAKGGSPVLGARGPRLEVVADASFLTEPVSCEVSNAVGSANRSTALDVLFGPILQAKPEPVSVDVGEDASFSCAWRGNPLPRVTWTRRGGAQMLGSGATLRLPSVGPEDAGDYVCRAEAGLSGLRGGAAEARLTVNAPPVVTALHSAPAFLRGPARLQCLVFASPAPDAVVWSWDEGFLEAGSQGRFLVETFPAPESRGGLGPGLISVLHISGTQESDFSRSFNCSARNRLGEGGAQASLGRRDLLPTVRIVAGVAAATTTLLMVITGVALCCWRHSKASASFSEQKNLMRIPGSSDGSSSRGPEEEETGSREDRGPIVHTDHSDLVLEEEGTLETKDPTNGYYKVRGVSVSLSLGEAPGGGLFLPPPSPLGPPGTPTFYDFNPHLGMVPPCRLYRARAGYLTTPHPRAFTSYIKPTSFGPPDLAPGTPPFPYAAFPTPSHPRLQTHV
notes: Neph3 (filtrin), human NEPH3 cDNA with the natural variant V353M (GTG to ATG by site-directed mutagenesis); Each copy carries ONE tag: FLAG on the bait copy, HA on the prey copy of the homodimerisation co-IP; Two FLAG constructs are described (Origene pCMV6 with FLAG-tag; modified pcDNA6 with CD5 signal peptide fused to the FLAG-tag); also called NEPH3-V353M; NEPH3-p.V353M; source: HEK 293T, …
B3: Neph3 (filtrin) 353V (natural protein, human, UniProt Q6UWL6 21-708, looked up)
chain: B2 chain with M333V
notes: Neph3 (filtrin), human NEPH3 cDNA, wild-type allele with valine at position 353; Each copy carries ONE tag: FLAG on the bait copy, HA on the prey copy of the homodimerisation co-IP; Two FLAG constructs are described (Origene pCMV6 with FLAG-tag; modified pcDNA6 coding for the CD5 signal peptide fused to the FLAG-tag); In the pcDNA6 constructs a CD5 signal peptide precedes the tag; also called …

Key:
Experiment in all cases: co-IP; HEK 293T cells co-transfected, lysed in IP-buffer (1% Triton X-100, 20 mM Tris pH 7.5, 25 mM NaCl); FLAG-Neph3 precipitated with anti-FLAG, blot with anti-HA (HA-Neph3) or anti-V5 (sV5-nephrin); densitometry (ImageJ) normalised to input, wild type set at 1.0, n = 3
Neph3 (filtrin) 353V = molecular target: B3; settings: partners not purified
[1] = molecular target: B2; settings: partners not purified
[2] = molecular target: the molecule itself

Binder | mean normalized densitometry value (co-IP) (Neph3 (filtrin) 353V) | mean densitometry value (co-IP) [1] | mean normalized densitometry value (co-IP) [2]
B1 | 1 relative to wild type (1.0) | 1.18 relative to wild type (1.0) | –
B2 | 4.33 relative to wild type (1.0) | – | 23.8 relative to wild type (1.0)
B3 | – | – | 1 relative to wild type (1.0)
